Stoichiometry N data for 1 substance are collected here from article PMC13232553.

In this assay the target is mPiezo1-ALFA_(2420)-HRV3C-GFP (mouse (printed only as mPiezo1)) (UniProt E2JF22). Kind of assay: SEC; Superose-6 (10/300 GL) in 150 mM NaCl, 20 mM tris pH 8, 0.025% C12E10, 4°C. The following applies: remark: other sources report otherwise.

The substance “mPiezo1-ALFA_(2420)-HRV3C-GFP, E2JF22 1-2547” had a stoichiometry N of 3.
